Data: publication PMC12056208
Like-named read-outs stand apart in the source and are kept apart here.

Legend:
Ku70;Ku80 = Ku70;Ku80 (Homo sapiens?;Homo sapiens?, UniProt P12956;P13010 1-609;1-732, |); conditions: protein: recombinant;recombinant; copies: 1;1; label: biotin; fork: 35 bp duplex (1:21-55 with 2:1-35), 5' tail 20 nt on strand 1, 3' tail 7 nt on strand 2; the tail ends (1:1-7, 2:36-42) are also complementary
[1] = target: T1, Ku70;Ku80;DNA polymerase mu (Homo sapiens?;Homo sapiens?;Homo …, UniProt P12956;P13010;Q9NP87 1-609;1-732;1-494, ||); conditions: protein: recombinant;recombinant;recombinant; copies: 1;1;1; label: biotin; fork: 35 bp duplex (1:21-55 with 2:1-35), 5' tail 20 nt on strand 1, 3' tail 7 nt on strand 2; the tail ends (1:1-7, 2:36-42) are also complementary
T1 sequence (P12956 whole entry, chain 1 of 3): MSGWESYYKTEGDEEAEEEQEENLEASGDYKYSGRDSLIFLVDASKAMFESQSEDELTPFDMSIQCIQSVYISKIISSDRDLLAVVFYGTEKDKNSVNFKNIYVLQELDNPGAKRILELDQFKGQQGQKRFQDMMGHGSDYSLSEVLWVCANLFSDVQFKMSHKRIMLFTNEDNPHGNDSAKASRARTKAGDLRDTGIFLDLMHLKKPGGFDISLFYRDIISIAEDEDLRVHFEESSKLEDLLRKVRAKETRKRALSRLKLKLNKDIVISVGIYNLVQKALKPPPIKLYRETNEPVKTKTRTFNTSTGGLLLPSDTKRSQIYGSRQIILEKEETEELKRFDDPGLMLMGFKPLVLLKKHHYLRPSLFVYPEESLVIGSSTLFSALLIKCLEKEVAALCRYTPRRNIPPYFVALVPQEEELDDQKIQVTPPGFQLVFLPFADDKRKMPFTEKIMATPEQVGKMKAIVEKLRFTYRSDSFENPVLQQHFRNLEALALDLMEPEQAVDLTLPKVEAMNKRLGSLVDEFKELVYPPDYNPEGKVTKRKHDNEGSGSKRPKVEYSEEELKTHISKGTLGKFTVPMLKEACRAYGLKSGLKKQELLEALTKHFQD
T1 sequence (P13010 whole entry, chain 2 of 3): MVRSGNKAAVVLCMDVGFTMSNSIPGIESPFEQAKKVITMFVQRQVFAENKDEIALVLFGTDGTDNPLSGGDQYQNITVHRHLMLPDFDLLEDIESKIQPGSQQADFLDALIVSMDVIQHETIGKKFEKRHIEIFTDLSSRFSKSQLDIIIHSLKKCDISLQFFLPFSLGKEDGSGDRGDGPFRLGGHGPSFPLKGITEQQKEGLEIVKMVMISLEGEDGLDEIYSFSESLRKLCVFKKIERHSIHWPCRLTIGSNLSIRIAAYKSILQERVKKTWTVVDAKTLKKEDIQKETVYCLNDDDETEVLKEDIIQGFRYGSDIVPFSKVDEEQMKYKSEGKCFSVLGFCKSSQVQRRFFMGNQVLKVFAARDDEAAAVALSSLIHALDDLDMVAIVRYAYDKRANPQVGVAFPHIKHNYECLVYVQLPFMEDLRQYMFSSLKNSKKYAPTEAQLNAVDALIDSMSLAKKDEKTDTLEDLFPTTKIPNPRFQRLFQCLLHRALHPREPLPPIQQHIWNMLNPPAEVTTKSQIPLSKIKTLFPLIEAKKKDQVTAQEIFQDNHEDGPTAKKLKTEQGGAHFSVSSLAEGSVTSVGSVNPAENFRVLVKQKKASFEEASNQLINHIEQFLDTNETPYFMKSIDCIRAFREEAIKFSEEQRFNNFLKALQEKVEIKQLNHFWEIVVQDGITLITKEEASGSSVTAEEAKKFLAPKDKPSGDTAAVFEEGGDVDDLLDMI
T1 sequence (Q9NP87 whole entry, chain 3 of 3): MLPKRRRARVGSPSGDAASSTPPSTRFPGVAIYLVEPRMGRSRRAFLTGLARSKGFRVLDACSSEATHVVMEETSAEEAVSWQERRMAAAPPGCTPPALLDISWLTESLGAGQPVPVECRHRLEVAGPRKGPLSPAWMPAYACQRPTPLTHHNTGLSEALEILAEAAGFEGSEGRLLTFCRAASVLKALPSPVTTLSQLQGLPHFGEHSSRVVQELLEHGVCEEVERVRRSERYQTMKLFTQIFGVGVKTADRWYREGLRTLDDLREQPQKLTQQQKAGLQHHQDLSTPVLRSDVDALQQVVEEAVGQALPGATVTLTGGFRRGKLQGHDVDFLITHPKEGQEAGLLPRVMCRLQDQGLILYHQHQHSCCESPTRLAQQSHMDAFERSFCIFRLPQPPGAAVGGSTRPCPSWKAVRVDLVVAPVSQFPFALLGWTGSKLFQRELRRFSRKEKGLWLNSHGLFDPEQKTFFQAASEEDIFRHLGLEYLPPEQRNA

[2] = target: Ku70;Ku80;DNA polymerase lambda (Homo sapiens?;Homo sapiens?;Homo …, UniProt P12956;P13010;Q9UGP5 1-609;1-732;1-575, ||); conditions: protein: recombinant;recombinant;recombinant; copies: 1;1;1; label: biotin; fork: 35 bp duplex (1:21-55 with 2:1-35), 5' tail 20 nt on strand 1, 3' tail 7 nt on strand 2; the tail ends (1:1-7, 2:36-42) are also complementary
Sequence of Ku70;Ku80;DNA polymerase lambda (P12956 whole entry, chain 1 of 3): as the sequence (P12956 whole entry, chain 1 of 3) above
Sequence of Ku70;Ku80;DNA polymerase lambda (P13010 whole entry, chain 2 of 3): as the sequence (P13010 whole entry, chain 2 of 3) above
Sequence of Ku70;Ku80;DNA polymerase lambda (Q9UGP5 whole entry, chain 3 of 3): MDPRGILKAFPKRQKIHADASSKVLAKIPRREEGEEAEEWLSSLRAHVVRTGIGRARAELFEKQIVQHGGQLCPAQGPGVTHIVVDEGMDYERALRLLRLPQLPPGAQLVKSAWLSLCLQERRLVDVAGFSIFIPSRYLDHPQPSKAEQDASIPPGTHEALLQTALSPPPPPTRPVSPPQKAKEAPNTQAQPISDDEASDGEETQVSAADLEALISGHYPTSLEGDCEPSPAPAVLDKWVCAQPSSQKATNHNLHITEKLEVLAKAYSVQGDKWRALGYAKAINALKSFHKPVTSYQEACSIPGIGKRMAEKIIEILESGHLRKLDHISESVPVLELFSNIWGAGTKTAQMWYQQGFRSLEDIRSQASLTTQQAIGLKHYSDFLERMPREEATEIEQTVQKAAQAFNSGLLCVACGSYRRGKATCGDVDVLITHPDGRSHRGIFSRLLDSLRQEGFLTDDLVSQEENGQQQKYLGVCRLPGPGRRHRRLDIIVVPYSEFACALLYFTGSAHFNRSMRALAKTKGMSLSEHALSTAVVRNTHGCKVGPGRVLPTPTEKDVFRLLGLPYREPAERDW

[3] = target: T1, Ku70;Ku80;DNA polymerase mu; conditions: protein: recombinant;recombinant;recombinant; copies: 1;1;1; two duplexes: S3/S6 13 bp with 3' overhang GC on S3; S5/S4 11 bp with 3' overhang AGC on S5; GC microhomology between overhangs

Sequence of Ku70;Ku80 (P12956 whole entry, chain 1 of 2): as the sequence (P12956 whole entry, chain 1 of 3) above
Sequence of Ku70;Ku80 (P13010 whole entry, chain 2 of 2): as the sequence (P13010 whole entry, chain 2 of 3) above

Binder	binding result (Ku70;Ku80)	binding result [1]	binding result [2]	binding result [3]
Y-shaped 42-55 DNA (dsDNA, 5' biotin on strand 1) DNA 1: CGCGCCCAGCTTTCCCAGCTAATAAACTAAAAACTATTATTATGGCCGCACGCGT DNA 2: ACGCGTGCGGCCATAATAATAGTTTTTAGTTTATTGGGCGCG	binds	binds	binds	
Microhomology DNA for Pol mu (dsDNA) DNA 1: GGTGCAGCACAGTGC DNA 2: ACTGTGCTGCACC DNA 3: GACTGCACGGCAGC DNA 4: GCCGTGCAGTC				binds
